{"source": "patent US20110104112A1", "about": "(University of California, published 2011)", "binders": {"B1": {"name": "anti-CD20/IgG3-mu-IFN-α (other)", "heavy": "QVQLQQPGAELVKPGASVKMSCKASGYTFTSYNMHWVKQTPGRGLEWIGAIYPGNGDTSYNQKFKGKATLTADKSSSTAYMQLSSLTSEDSAVYYCARSTYYGGDWYFNVWGAGTTVTVSAASTKGPSVFPLAPCSRSTSGGTAALGCLVKDYFPEPVTVSWNSGALTSGVHTFPAVLQSSGLYSLSSVVTVPSSSLGTQTYTCNVNHKPSNTKVDKRVELKTPLGDTTHTCPRCPEPKSCDTPPPCPRCPEPKSCDTPPPCPRCPEPKSCDTPPPCPRCPAPELLGGPSVFLFPPKPKDTLMISRTPEVTCVVVDVSHEDPEVQFKWYVDGVEVHNAKTKLREEQYNSTFRVVSVLTVLHQDWLNGKEYKCKVSNKALPAPIEKTISKAKGQPREPQVYTLPPSREEMTKNQVSLTCLVKGFYPSDIAVEWESNGQPENNYNTTPPMLDSDGSFFLYSKLTVDKSRWQQGNIFSCSVMHEALHNHYTQKSLSLSPGKSGGGGSCDLPQTHNLRNKRALTLLVQMRRLSPLSCLKDRKDFGFPQEKVDAQQIKKAQAIPVLSELTQQILNIFTSKDSSAAWNATLLDSFCNDLHQQLNDLQGCLMQQVGVQEFPLTQEDALLAVRKYFHRITVYLREKKHSPCAWEVVRAEVWRALSSSANVLGRLREEK", "light": "QIVLSQSPAILSASPGEKVTMTCRASSSVSYIHWFQQKPGSSPKPWIYATSNLASGVPVRFSGSGSGTSYSLTISRVEAEDAATYYCQQWTSNPPTFGGGTKLEIK"}}, "target": "T1, IFNAR on 38C13 cells (murine, UniProt P33896 27-590; O35664 22-513)", "T1 sequence (looked up) 1": "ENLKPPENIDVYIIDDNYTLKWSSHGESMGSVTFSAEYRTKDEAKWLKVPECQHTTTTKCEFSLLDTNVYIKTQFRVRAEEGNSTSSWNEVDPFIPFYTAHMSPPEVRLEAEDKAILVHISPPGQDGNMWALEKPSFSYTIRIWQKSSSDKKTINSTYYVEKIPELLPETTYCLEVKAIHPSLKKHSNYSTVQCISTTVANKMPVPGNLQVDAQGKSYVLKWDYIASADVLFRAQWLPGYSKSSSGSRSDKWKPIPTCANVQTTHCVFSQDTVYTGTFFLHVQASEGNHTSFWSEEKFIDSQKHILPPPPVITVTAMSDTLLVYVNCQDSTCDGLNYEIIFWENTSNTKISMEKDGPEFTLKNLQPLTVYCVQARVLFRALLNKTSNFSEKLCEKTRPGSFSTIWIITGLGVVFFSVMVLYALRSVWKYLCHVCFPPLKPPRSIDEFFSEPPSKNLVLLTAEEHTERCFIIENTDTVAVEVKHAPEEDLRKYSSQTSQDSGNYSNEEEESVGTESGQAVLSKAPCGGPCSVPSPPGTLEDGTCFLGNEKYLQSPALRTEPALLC", "T1 sequence (looked up) 2": "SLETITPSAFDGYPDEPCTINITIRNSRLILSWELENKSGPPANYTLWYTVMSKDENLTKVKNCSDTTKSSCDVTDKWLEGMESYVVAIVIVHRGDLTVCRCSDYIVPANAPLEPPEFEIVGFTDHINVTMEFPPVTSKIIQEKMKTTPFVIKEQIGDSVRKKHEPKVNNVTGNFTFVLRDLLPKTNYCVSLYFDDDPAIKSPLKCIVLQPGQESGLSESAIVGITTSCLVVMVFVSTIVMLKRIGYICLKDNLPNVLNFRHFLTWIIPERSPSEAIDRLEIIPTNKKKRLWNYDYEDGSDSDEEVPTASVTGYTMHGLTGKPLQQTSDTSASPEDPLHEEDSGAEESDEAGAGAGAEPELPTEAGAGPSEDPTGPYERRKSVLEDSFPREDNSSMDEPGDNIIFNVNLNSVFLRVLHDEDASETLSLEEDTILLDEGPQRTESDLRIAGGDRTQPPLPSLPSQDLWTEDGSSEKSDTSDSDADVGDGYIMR", "assay": "cell-based or functional assay", "data": [{"binder": "B1", "values": [{"measurement": "IC50 (pM) 38C13-CD20, cell viability, MTS assay", "value": 76.4, "unit": "pM"}, {"measurement": "IC50 (pM) 38C13-CD20-IFNR Knock Down, cell viability, MTS assay", "value": 848, "unit": "pM"}]}]}
